Measured values as given in patent US20160039947A1 (Eli Lilly, published 2016).
Residue numbers refer to the chain shown, from its start.

B1: MAControl λλ (anti-cMET/anti-Axl IgG BsAb without Fab redesigns) (bispecific antibody)
heavy 1: EVQLVESGGGLVQPGGSLRLSCAASGYTFTSYWLHWVRQAPGKGLEWVGMIDPSNSDTRFNPNFKDRFTISADTSKNTAYLQMNSLRAEDTAVYYCATYRSYVTPLDYWGQGTLVTVSSASTKGPSVFPLAPSSKSTSGGTAALGCLVKDYFPEPVTVSWNSGALTSGVHTFPAVLQSSGLYSLSSVVTVPSSSLGTQTYICNVNHKPSNTKVDKKVEPKSCDKTHTCPPCPAPELLGGPSVFLFPPKPKDTLMISRTPEVTCVVVDVSHEDPEVKFNWYVDGVEVHNAKTKPREEQYQSTYRVVSVLTVLHQDWLNGKEYKCKVSNKALPAPIEKTISKAKGQPREPQVYTLPPSRDELTKNQVSLTCLVKGFYPSDIAVEWESNGQPENNYDTTPPVLDSDGSFFLYSDLTVDKSRWQQGNVFSCSVMHEALHNHYTQKSLSLSPG
light 1: DIQMTQSPSSLSASVGDRVTITCKSSQSLLYTSSQKNYLAWYQQKPGKAPKLLIYWASTRESGVPSRFSGSGSGTDFTLTISSLQPEDFATYYCQQYYAYPWTFGQGTKVEIKGQPKAAPSVTLFPPSSEELQANKATLVCLISDFYPGAVTVAWKADSSPVKAGVETTTPSKQSNNKYAASSYLSLTPEQWKSHRSYSCQVTHEGSTVEKTVAPTEC
heavy 2: EVQLVESGGGLVQPGGSLRLSCAASGFSLSGSWIHWVRQAPGKGLEWVGWINPYRGYAYYADSVKGRFTISADTSKNTAYLQMNSLRAEDTAVYYCAREYSGWGGSSVGYAMDYWGQGTLVTVSSASTKGPSVFPLAPSSKSTSGGTAALGCLVKDYFPEPVTVSWNSGALTSGVHTFPAVLQSSGLYSLSSVVTVPSSSLGTQTYICNVNHKPSNTKVDKKVEPKSCDKTHTCPPCPAPELLGGPSVFLFPPKPKDTLMISRTPEVTCVVVDVSHEDPEVKFNWYVDGVEVHNAKTKPREEQYQSTYRVVSVLTVLHQDWLNGKEYKCKVSNKALPAPIEKTISKAKGQPREPQVYTLPPSRKELTKNQVSLTCLVKGFYPSDIAVEWESNGQPENNYKTTPPVLKSDGSFFLYSKLTVDKSRWQQGNVFSCSVMHEALHNHYTQKSLSLSPG
light 2: DIQMTQSPSSLSASVGDRVTITCRASQDVSTAVAWYQQKPGKAPKLLIYSASFLYSGVPSRFSGSGSGTDFTLTISSLQPEDFATYYCQQSYTTPPTFGQGTKVEIKGQPKAAPSVTLFPPSSEELQANKATLVCLISDFYPGAVTVAWKADSSPVKAGVETTTPSKQSNNKYAASSYLSLTPEQWKSHRSYSCQVTHEGSTVEKTVAPTEC
B2: MADesign λλ (anti-cMET/anti-Axl IgG BsAb with Fab redesigns) (bispecific antibody)
heavy 1: B1 heavy 1 with Q39K, N63E, H170A, F172G
light 1: B1 light 1 with D1R, Q44D, L142Y, S182W
heavy 2: B1 heavy 2 with Q39Y
light 2: B1 light 2 with Q38R
notes: also called MA Designs
B3: MAControl λκ (anti-cMET/anti-Axl IgG BsAb without Fab redesigns) (bispecific antibody)
heavy 1: B1 heavy 1
light 1: B1 light 1
heavy 2: B1 heavy 2
light 2: DIQMTQSPSSLSASVGDRVTITCRASQDVSTAVAWYQQKPGKAPKLLIYSASFLYSGVPSRFSGSGSGTDFTLTISSLQPEDFATYYCQQSYTTPPTFGQGTKVEIKRTVAAPSVFIFPPSDEQLKSGTASVVCLLNNFYPREAKVQWKVDNALQSGNSQESVTEQDSKDSTYSLSSTLTLSKADYEKHKVYACEVTHQGLSSPVTKSFNRGEC
B4: MADesign λκ (anti-cMET/anti-Axl IgG BsAb with Fab redesigns) (bispecific antibody)
heavy 1: B1 heavy 1 with Q39K, N63E, H170A, F172G
light 1: B1 light 1 with D1R, Q44D, L142Y, S182W
heavy 2: B1 heavy 2 with Q39Y
light 2: B3 light 2 with Q38R
notes: also called MA Designs
B5: MADesign κλ (anti-cMET/anti-Axl IgG BsAb with Fab redesigns) (bispecific antibody)
heavy 1: B1 heavy 1 with Q39K, N63E, H170A, F172G
light 1: RIQMTQSPSSLSASVGDRVTITCKSSQSLLYTSSQKNYLAWYQDKPGKAPKLLIYWASTRESGVPSRFSGSGSGTDFTLTISSLQPEDFATYYCQQYYAYPWTFGQGTKVEIKRTVAAPSVFIFPPSDEQLKSGTASVVCYLNNFYPREAKVQWKVDNALQSGNSQESVTEQDSKDSTYSLWSTLTLSKADYEKHKVYACEVTHQGLSSPVTKSFNRGEC
heavy 2: B1 heavy 2 with Q39Y
light 2: B1 light 2 with Q38R
notes: also called MA Designs
B6: HEControl λλ (anti-HER-2/anti-EGFR IgG BsAb without Fab redesigns) (bispecific antibody)
heavy 1: EVQLVESGGGLVQPGGSLRLSCAASGFTFTDYTMDWVRQAPGKGLEWVADVNPNSGGSIYNQRFKGRFTLSVDRSKNTLYLQMNSLRAEDTAVYYCARNLGPSFYFDYWGQGTLVTVSSASTKGPSVFPLAPSSKSTSGGTAALGCLVKDYFPEPVTVSWNSGALTSGVHTFPAVLQSSGLYSLSSVVTVPSSSLGTQTYICNVNHKPSNTKVDKKVEPKSCDKTHTCPPCPAPELLGGPSVFLFPPKPKDTLMISRTPEVTCVVVDVSHEDPEVKFNWYVDGVEVHNAKTKPREEQYQSTYRVVSVLTVLHQDWLNGKEYKCKVSNKALPAPIEKTISKAKGQPREPQVYTLPPSRDELTKNQVSLTCLVKGFYPSDIAVEWESNGQPENNYDTTPPVLDSDGSFFLYSDLTVDKSRWQQGNVFSCSVMHEALHNHYTQKSLSLSPG
light 1: B1 light 2 with R24K, T31I, A32G, F53Y, L54R, S56T, S91Y, T93I, T94Y, P96Y
heavy 2: QVQLVQSGAEVKKPGASVKVSCKASGYTFTSHWMHWVRQAPGQGLEWIGEFNPSNGRTNYNEKFKSKATMTVDTSTNTAYMELSSLRSEDTAVYYCASRDYDYDGRYFDYWGQGTLVTVSSASTKGPSVFPLAPSSKSTSGGTAALGCLVKDYFPEPVTVSWNSGALTSGVHTFPAVLQSSGLYSLSSVVTVPSSSLGTQTYICNVNHKPSNTKVDKKVEPKSCDKTHTCPPCPAPELLGGPSVFLFPPKPKDTLMISRTPEVTCVVVDVSHEDPEVKFNWYVDGVEVHNAKTKPREEQYQSTYRVVSVLTVLHQDWLNGKEYKCKVSNKALPAPIEKTISKAKGQPREPQVYTLPPSRKELTKNQVSLTCLVKGFYPSDIAVEWESNGQPENNYKTTPPVLKSDGSFFLYSKLTVDKSRWQQGNVFSCSVMHEALHNHYTQKSLSLSPG
light 2: DIQMTQSPSSLSASVGDRVTITCSASSSVTYMYWYQQKPGKAPKLLIYDTSNLASGVPSRFSGSGSGTDYTFTISSLQPEDIATYYCQQWSSHIFTFGQGTKVEIKGQPKAAPSVTLFPPSSEELQANKATLVCLISDFYPGAVTVAWKADSSPVKAGVETTTPSKQSNNKYAASSYLSLTPEQWKSHRSYSCQVTHEGSTVEKTVAPTEC
notes: The preparation held 65% correctly paired heterotetramer by LC/MS
B7: HEControl λκ (anti-HER-2/anti-EGFR IgG BsAb without Fab redesigns) (bispecific antibody)
heavy 1: B6 heavy 1
light 1: B1 light 2 with R24K, T31I, A32G, F53Y, L54R, S56T, S91Y, T93I, T94Y, P96Y
heavy 2: B6 heavy 2
light 2: DIQMTQSPSSLSASVGDRVTITCSASSSVTYMYWYQQKPGKAPKLLIYDTSNLASGVPSRFSGSGSGTDYTFTISSLQPEDIATYYCQQWSSHIFTFGQGTKVEIKRTVAAPSVFIFPPSDEQLKSGTASVVCLLNNFYPREAKVQWKVDNALQSGNSQESVTEQDSKDSTYSLSSTLTLSKADYEKHKVYACEVTHQGLSSPVTKSFNRGEC

What follows are binders tested against T1, hHGFR(cMet)-Fc (human, UniProt P08581 25-932) (assay: sandwich ELISA: hHGFR(cMet)-Fc coated, BsAb, hAxl-Fc-biotin detection).
T1 construct: Coated in the sandwich ELISA; second injection in SPR; not shown: Fc part of the bought fusion protein
T1 sequence (P08581 25-932): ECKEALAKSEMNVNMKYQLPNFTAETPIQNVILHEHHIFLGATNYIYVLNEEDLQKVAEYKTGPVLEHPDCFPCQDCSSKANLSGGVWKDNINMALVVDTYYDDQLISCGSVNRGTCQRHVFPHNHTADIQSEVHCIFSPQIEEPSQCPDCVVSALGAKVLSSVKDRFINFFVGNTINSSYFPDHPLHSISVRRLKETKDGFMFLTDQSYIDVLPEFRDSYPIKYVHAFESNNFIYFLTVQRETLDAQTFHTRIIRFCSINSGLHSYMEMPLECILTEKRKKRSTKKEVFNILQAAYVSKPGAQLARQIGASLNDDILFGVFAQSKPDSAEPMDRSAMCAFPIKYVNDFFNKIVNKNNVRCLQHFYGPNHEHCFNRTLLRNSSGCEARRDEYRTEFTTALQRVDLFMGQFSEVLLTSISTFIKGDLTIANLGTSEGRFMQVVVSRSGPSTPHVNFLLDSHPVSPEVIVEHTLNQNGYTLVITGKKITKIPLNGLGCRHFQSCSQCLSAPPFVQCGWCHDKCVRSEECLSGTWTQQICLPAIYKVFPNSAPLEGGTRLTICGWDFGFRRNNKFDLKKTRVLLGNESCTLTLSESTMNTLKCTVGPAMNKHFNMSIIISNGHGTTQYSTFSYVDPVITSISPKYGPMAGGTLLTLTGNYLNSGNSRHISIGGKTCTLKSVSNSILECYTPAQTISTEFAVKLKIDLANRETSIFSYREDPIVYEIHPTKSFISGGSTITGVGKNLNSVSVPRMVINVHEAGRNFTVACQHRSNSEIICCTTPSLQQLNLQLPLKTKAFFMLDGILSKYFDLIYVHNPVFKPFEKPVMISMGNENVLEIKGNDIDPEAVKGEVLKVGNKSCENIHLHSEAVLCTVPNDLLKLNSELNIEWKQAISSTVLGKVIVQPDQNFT
Method: (§1) Two sandwich ELISAs are developed, one for detecting anti-HER-2/anti-EGFR BsAb activity and one for detecting anti-cMET/anti-Axl BsAb activity. For both ELISAs, clear 96-well round bottom high binding Immulon microtiter plates (Greiner bio-one, cat#650061) are coated overnight at 2-8° C. with 50 μL/well 1 μg/mL hHER-2-Fc or 1 μg/mL hHGFR(cMet)-Fc (both from R&D systems) in a 50 mM Na₂CO₃ pH 8 buffer. The plates are washed 4 times with PB ST and blocked with 100 μL/well casein buffer (Pierce) for 1 hr at 37° C. The plates are then washed 4 times with PBST and the parental IgG controls or BsAb IgG test articles are added at 50 μL/well and 5 μg/mL and serially diluted 1:3 down the plate. The test articles are incubated on the plate for 1 hr at 37° C. The plates are then washed 4 times with PBST and 50 μL/well 0.2 μg/mL hEGFR-Fc-biotin or hAxl-Fc-biotin (both from R&D systems) is added for 1 hr at 37° C. The plates are then washed 4 times with PBST followed by the addition of a 50 μL/well streptavidin-HRP (Jackson Labs) diluted 1:2000 in PBST. The streptavidin-HRP is incubated in each well for 1 hr at 37° C. The plates are then washed 4 times with PBST and 100 μL/well 1-component TMB substrate is added (KPL laboratories). After approximately 10 minutes, […] 1% H₃PO₄ (in H₂O) is added to each plate to quench the reaction. Absorbance (450 nm) of every well in the plates is read using a SpectraMax UV plate reader (Molecular Devices). Biotin-labeling of the hEGFR-Fc and hAxl-Fc proteins is performed using EZ-Link Sulfo-NHS-LC-Biotin (Thermo Scientific) according to the manufacturer's protocol.

Binding result, binds:
B1
B2
B3
B4
B5

Each binder was assayed against T2, hEGFR-Fc (human, UniProt P00533 25-645) (assay: sandwich ELISA: hHER-2-Fc coated, BsAb, hEGFR-Fc-biotin detection).
T2 construct: Biotin-labelled (EZ-Link Sulfo-NHS-LC-Biotin) as detection reagent in the ELISA; unlabelled second injection in SPR; also called hEGFR-Fc-biotin; not shown: Fc part of the bought fusion protein
Method: as §1

Binding result, binds:
B6
B7
